Measurements reported in US20240317834A1, “COMPOSITIONS AND METHODS FOR NEUROLOGICAL DISEASES” (CODA BIOTHERAPEUTICS, INC., priority 2020, published 2024).
“Also recorded” adds a separate entry of the source.

What was measured:
HEK293 cells = test: Whole cell manual patch clamp electrophysiology, ligand-induced currents and EC50 in HEK293 cells; format: cell-based
Experimental: Using whole cell manual patch clamp electrophysiology in HEK293 cells, rat DRG neurons and rat hippocampal neurons, the EC50 of the various engineered receptors disclosed herein to Ach and non-native ligands was measured using the Hill equation with peak current measurements from escalating doses of ligand. The rheobase shift was also measured in rat DRG neurons, which reflects the efficacy of the receptors. To calculate the rheobase, first, the amount of current that can produce an action potential was determined. Then the ligand was added, followed by a step wise increase in the current injected up to 700 pA.
For manual patch clamp experiments, Cells plated on coverslips were visualized at 10× and 40× on an inverted fluorescence microscope (Olympus). Recordings were made with an Axopatch 200B amplifier and Digidata 1550B (Molecular Devices) at RT using 3-6 MOhm glass patch electrodes (Sutter, BF150-86-10). Unless otherwise stated, recordings were made in extracellular solution (ECS) containing: 140 mM sodium chloride, 4 mM potassium chloride, 1 mM magnesium chloride, 2 mM calcium chloride, 10 mM HEPES, and 10 mM D-(+)-glucose (pH=7.3 with sodium hydroxide, osmolarity=305−315 mOsm). […] Traces were either analyzed in Clampfit (Molecular Devices) or using custom Python code. […]
For dose-response, ligand-induced currents were recorded in voltage clamp mode. […]

Lenti-X 293T cells = test: YFP fluorescence quenching anion reporter plate reader assay of engineered receptors stimulated with acetylcholine or a non-native ligand; format: cell-based
In short: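 YFP quench was followed for about 1 min 43 s after ligand delivered in iodide-based ECS, pH 7.2. Values are end-of-read fluorescence (last 10 s) divided by the pre-ligand baseline (15 s). Cells were LX293T, transfected with receptor DNA a day before the assay.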

B1: CODA806: engineered chimeric LGIC receptor, Y115D, L131Q in SEQ ID NO: 33 (protein)
chain: MRCSPGGVWLALAASLLHVSLQGEFQRKLYKELVKNYNPLERPVANDSQPLTVYFSLSLLQIMDVDEKNQVLTTNIWLQMSWTDHYLQWNVSEYPGVKTVRFPDGQIWKPDILLDNSADERFDATFHTNVQVNSSGHCQYLPPGIFKSSCPMDLKNFPMDVQTCKLKFGSWSYGGWSLDLQMQEADISGYIPNGEWDLVGIPGKRSERFYECCKEPYPDVTFTVTMRRRMGYYLIQMYIPSLLIVILSWISFWINMDAAPARVGLGITTVLTMTTQSSGSRASLPKVSYVKAIDIWMAVCLLFVFSALLEYAAVNFVSRQHKELLRFRRKRRHHKSPMLNLFQEDEAGEGRFNFSAYGMGPACLQAKDGISVKGANNSNTTNPPPAPSKSPEEMRKLFIQRAKKIDKISRIGFPMAFLIFNMFYWIIYKIVRREDVHNQ
modifications: synthetic sequence of chimeric LGIC
HEK293 cells
  sensitivity to RG-3487 compared with wildtype nAchRa7 receptor: way more sensitive
HEK293 cells; Ach up to 100 mM, compared with wildtype nAchRa7 receptor, listed as Y115D and L131Q in SEQ ID NO: 33
  sensitivity to acetylcholine, current generated: essentially insensitive; also recorded: almost no current could be generated
Lenti-X 293T cells; 1 nM CNL001, first column
  YFP fluorescence quenching using CNL001: 6.587%
Lenti-X 293T cells; 1 nM CNL001, second column
  YFP fluorescence quenching using CNL001: −5.179%
Lenti-X 293T cells; 1 nM brd
  YFP fluorescence quenching using TC-5619/Bradanicline: 0.92%
Lenti-X 293T cells; 3 nM brd
  YFP fluorescence quenching using TC-5619/Bradanicline: −4.65%
Lenti-X 293T cells; 10 nM CNL001, first column
  YFP fluorescence quenching using CNL001: −2.366%
Lenti-X 293T cells; 10 nM CNL001, second column
  YFP fluorescence quenching using CNL001: −1.272%
Lenti-X 293T cells; 10 nM brd
  YFP fluorescence quenching using TC-5619/Bradanicline: 0.38%
Lenti-X 293T cells; 30 nM brd
  YFP fluorescence quenching using TC-5619/Bradanicline: −8.96%
Lenti-X 293T cells; 30 nM fac
  YFP fluorescence quenching using Facinicline: 41.32
Lenti-X 293T cells; 50 nM CNL001, first column
  YFP fluorescence quenching using CNL001: 2.763%
Lenti-X 293T cells; 50 nM CNL001, second column
  YFP fluorescence quenching using CNL001: 1.995%
Lenti-X 293T cells; 50 nM abt
  YFP fluorescence quenching using ABT-126: −1.81%
Lenti-X 293T cells; 100 nM CNL001, first column
  YFP fluorescence quenching using CNL001: 3.091%
Lenti-X 293T cells; 100 nM CNL001, second column
  YFP fluorescence quenching using CNL001: 1.45%
Lenti-X 293T cells; 100 nM CNL002
  YFP fluorescence quenching using CNL002: −10.03%
Lenti-X 293T cells; 100 nM abt
  YFP fluorescence quenching using ABT-126: −2.61%
Lenti-X 293T cells; 100 nM azd0328
  YFP fluorescence quenching using AZD-0328: 12.15%
Lenti-X 293T cells; 100 nM brd
  YFP fluorescence quenching using TC-5619/Bradanicline: 12.18%
Lenti-X 293T cells; 100 nM fac
  YFP fluorescence quenching using Facinicline: 59.51
Lenti-X 293T cells; 300 nM abt
  YFP fluorescence quenching using ABT-126: −3.78%
Lenti-X 293T cells; 300 nM azd0328
  YFP fluorescence quenching using AZD-0328: 30.92%
Lenti-X 293T cells; 300 nM brd
  YFP fluorescence quenching using TC-5619/Bradanicline: −0.3%
Lenti-X 293T cells; 300 nM fac
  YFP fluorescence quenching using Facinicline: 74.86
Lenti-X 293T cells; 1 uM CNL001, first column
  YFP fluorescence quenching using CNL001: 7.331%
Lenti-X 293T cells; 1 uM CNL001, second column
  YFP fluorescence quenching using CNL001: 9.103%
Lenti-X 293T cells; 1 uM CNL002
  YFP fluorescence quenching using CNL002: −3.33%
Lenti-X 293T cells; 1 uM abt
  YFP fluorescence quenching using ABT-126: −2.6%
Lenti-X 293T cells; 1 uM brd
  YFP fluorescence quenching using TC-5619/Bradanicline: 45.47%
Lenti-X 293T cells; 1 uM tc6987
  YFP fluorescence quenching using TC-6987: 38.83
Lenti-X 293T cells; 10 uM fac
  YFP fluorescence quenching using Facinicline: 78.53
Lenti-X 293T cells; 10 uM tc6987
  YFP fluorescence quenching using TC-6987: 31.59
Lenti-X 293T cells; 30 uM CNL002
  YFP fluorescence quenching using CNL002: 6.96%
Lenti-X 293T cells; 30 uM azd0328
  YFP fluorescence quenching using AZD-0328: 68.65%
Lenti-X 293T cells; 30 uM fac
  YFP fluorescence quenching using Facinicline: 84.45
Lenti-X 293T cells; 500 uM tc6987
  YFP fluorescence quenching using TC-6987: 29.83
Lenti-X 293T cells; acetylcholine 10 uM
  percent quench of YFP fluorescence, 10 uM ach: 9.47%
Lenti-X 293T cells; acetylcholine 100 uM
  percent quench of YFP fluorescence, 100 uM ach: 6.12%
Lenti-X 293T cells; acetylcholine 1 mM
  percent quench of YFP fluorescence, 1 mM ach: −1.56%
Lenti-X 293T cells; acetylcholine 3 mM
  percent quench of YFP fluorescence, 3 mM ach: 17.57%
